The values below are quoted from earlier work in publication PMC7602980 (Biomolecules, 2020).

For the data set, the target named is Cx43CT. The conditions noted are these: compared with CaM; no reference printed beside the value; Drebrin–Cx43 interaction ref [78]; read-out: binding affinity Drebrin for Cx43CT, as quoted in discussion. An excerpt: While CaM can be seen as mimicking P ...

B1: Drebrin: developmentally regulated brain protein, linker between Cx43 gap junctions and actin/submembrane cytoskeleton (protein, UniProt Q16643 2-649, looked up)
Drebrin: AGVSFSGHRLELLAAYEEVIREESAADWALYTYEDGSDDLKLAASGEGGLQELSGHFENQKVMYGFCSVKDSQAALPKYVLINWVGEDVPDARKCACASHVAKVAEFFQGVDVIVNASSVEDIDAGAIGQRLSNGLARLSSPVLHRLRLREDENAEPVGTTYQKTDAAVEMKRINREQFWEQAKKEEELRKEEERKKALDERLRFEQERMEQERQEQEERERRYREREQQIEEHRRKQQTLEAEEAKRRLKEQSIFGDHRDEEEETHMKKSESEVEEAAAIIAQRPDNPREFFKQQERVASASAGSCDVPSPFNHRPGSHLDSHRRMAPTPIPTRSPSDSSTASTPVAEQIERALDEVTSSQPPPLPPPPPPAQETQEPSPILDSEETRAAAPQAWAGPMEEPPQAQAPPRGPGSPAEDLMFMESAEQAVLAAPVEPATADATEIHDAADTIETDTATADTTVANNVPPAATSLIDLWPGNGEGASTLQGEPRAPTPPSGTEVTLAEVPLLDEVAPEPLLPAGEGCATLLNFDELPEPPATFCDPEEVEGESLAAPQTPTLPSALEELEQEQEPEPHLLTNGETTQKEGTQASEGYFSQSQEEEFAQSEELCAKAPPPVFYNKPPEIDITCWDADPVPEEEEGFEGGD
For B1, the Kd was around 300 µM.
